The values below come from patent US20110167521.

Holding throughout (assay): cell_activity
For data set [1], the system named is ZFP 13722-KRAB1 (artificial). Conditions: homozygous T2 immature seed, event 5212-4; no apparent effect in heterozygous.
The subject of data set [2] is ZFP 13722-NtERF3 (artificial). Conditions: homozygous T2 immature seed, event 5227-12, p=0.025; no apparent effect in heterozygous.
For data set [3], the system named is ZFP 14025-VP16 (artificial). Conditions: callus, control 2.90; 27% up-regulation p=0.05; more than 3-fold in some T0 events.

With “AAGGAGAATTTTAGGGTTTGGGGAGACT (double strand) [FatB5 13722 target]”, the activity (% FatB5 mRNA reduction) was determined as 15 in data set [1] and 21 in data set [2].

As to “CGTGGAGACGTCAAAAGA (double strand) [KASII 14025 target]”, in data set [3], the activity (KasII/tubulin mRNA ratio) is 3.69.
